Experimental data taken from patent publication US20050176123A1 (MORINAGA MILK INDUSTRY, published 2005).

Key:
Experiment in all cases: cell-based or functional assay
[1] = target: T1, papain (UniProt P00784 134-345)
T1 sequence (looked up): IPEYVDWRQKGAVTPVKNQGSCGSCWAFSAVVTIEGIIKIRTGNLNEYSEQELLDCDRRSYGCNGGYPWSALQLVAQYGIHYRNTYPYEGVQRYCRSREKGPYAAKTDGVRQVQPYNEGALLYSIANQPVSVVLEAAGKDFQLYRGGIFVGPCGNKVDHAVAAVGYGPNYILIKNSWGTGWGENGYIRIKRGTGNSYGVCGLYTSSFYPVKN

[2] = target: cathepsin L
[3] = target: T1, papain; remark: listed apart in the source
[4] = target: cathepsin S
[5] = target: cathepsin L; remark: listed apart in the source
[6] = target: cathepsin B
[7] = target: cathepsin B; remark: listed apart in the source

YEKYLGPQYVAGITNLK [human lactoferrin peptide Y679-K695]
inhibition of cysteine protease activity at 10^-4 M inhibitor [1]: > 50% | inhibition of cysteine protease activity at 10^-4 M inhibitor [2]: > 50%

B1: bovine lactoferrin (manufactured by Morinaga Milk Industry Co., Ltd.) (other)
chain: APRKNVRWCTISQPEWFKCRRWQWRMKKLGAPSITCVRRAFALECIRAIAEKKADAVTLDGGMVFEAGRDPYKLRPVAAEIYGTKESPQTHYYAVAVVKKGSNFQLDQLQGRKSCHTGLGRSAGWIIPMGILRPYLSWTESLEPLQGAVAKFFSASCVPCIDRQAYPNLCQLCKGEGENQCACSSREPYFGYSGAFKCLQDGAGDVAFVKETTVFENLPEKADRDQYELLCLNNSRAPVDAFKECHLAQVPSHAVVARSVDGKEDLIWKLLSKAQEKFGKNKSRSFQLFGSPPGQRDLLFKDSALGFLRIPSKVDSALYLGSRYLTTLKNLRETAEEVKARYTRVVWCAVGPEEQKKCQQWSQQSGQNVTCATASTTDDCIVLVLKGEADALNLDGGYIYTAGKCGLVPVLAENRKSSKHSSLDCVLRPTEGYLAVAVVKKANEGLTWNSLKDKKSCHTAVDRTAGWNIPMGLIVNQTGSCAFDEFFSQSCAPGADPKSRLCALCAGDDQGLDKCVPNSKEKYYGYTGAFRCLAEDVGDVAFVKNDTVWENTNGESTADWAKNLNREDFRLLCLDGTRKPVTEAQSCHLAVAPNHAVVSRSDRAAHVKQVLLHQQALFGKNGKNCPDKFCLFKSETKNLLFNDNTECLAKLGGRPTYEEYLGTEYVTAIANLKKCSTSPLLEACAFLTR
inhibition rate (%) at 10^-4M inhibitor [3]: 100% | inhibition rate (%) at 10^-5M inhibitor [3]: 100% | inhibition rate (%) at 10^-6M inhibitor [3]: 100% | inhibition rate (%) at 10^-7M inhibitor [3]: 40% | inhibition rate (%) at 10^-8M inhibitor [3]: 0% | inhibition rate (%) at 10^-4M inhibitor [4]: 100% | inhibition rate (%) at 10^-5M inhibitor [4]: 80% | inhibition rate (%) at 10^-6M inhibitor [4]: 15% | inhibition rate (%) at 10^-7M inhibitor [4]: 0% | inhibition rate (%) at 10^-8M inhibitor [4]: 0% | inhibition rate (%) at 10^-4M inhibitor [5]: 100% | inhibition rate (%) at 10^-5M inhibitor [5]: 100% | inhibition rate (%) at 10^-6M inhibitor [5]: 100% | inhibition rate (%) at 10^-7M inhibitor [5]: 20% | inhibition rate (%) at 10^-8M inhibitor [5]: 0% | inhibition rate (%) at 10^-4M inhibitor [6]: 100% | inhibition rate (%) at 10^-5M inhibitor [6]: 70% | inhibition rate (%) at 10^-6M inhibitor [6]: 10% | inhibition rate (%) at 10^-7M inhibitor [6]: 0% | inhibition rate (%) at 10^-8M inhibitor [6]: 0%

B2: bovine transferrin (manufactured by Nihon Pharmaceutical Co., Ltd.) (other)
chain: DPERTVRWCTISTHEANKCASFRENVLRILESGPFVSCVKKTSHMDCIKAISNNEADAVTLDGGLVYEAGLKPNNLKPVVAEFHGTKDNPQTHYYAVAVVKKDTDFKLNELRGKKSCHTGLGRSAGWNIPMAKLYKELPDPQESIQRAAANFFSASCVPCADQSSFPKLCQLCAGKGTDKCACSNHEPYFGYSGAFKCLMEGAGDVAFVKHSTVFDNLPNPEDRKNYELLCGDNTRKSVDDYQECYLAMVPSHAVVARTVGGKEDVIWELLNHAQEHFGKDKPDNFQLFQSPHGKDLLFKDSADGFLKIPSKMDFELYLGYEYVTALQNLRESKPPDSSKDECMVKWCAIGHQERTKCDRWSGFSGGAIECETAENTEECIAKIMKGEADAMSLDGGYLYIAGKCGLVPVLAENYKTEGESCKNTPEKGYLAVAVVKTSDANINWNNLKDKKSCHTAVDRTAGWNIPMGLLYSKINNCKFDEFFSAGCAPGSPRNSSLCALCIGSEKGTGKECVPNSNERYYGYTGAFRCLVEKGDVAFVKDQTVIQNTDGNNNEAWAKNLKKENFEVLCKDGTRKPVTDAENCHLARGPNHAVVSRKDKATCVEKILNKQQDDFGKSVTDCTSNFCLFQSNSKDLLFRDDTKCLASIAKKTYDSYLGDDYVRAMTNLRQCSTSKLLEACTFHKP
inhibition of cysteine protease activity at 10^-4 M inhibitor [1]: 40% | inhibition of cysteine protease activity at 10^-4 M inhibitor [2]: > 30% | inhibition of cysteine protease activity at 10^-4 M inhibitor [7]: > 30%
